Holding throughout (test): two-hybrid library CCmax;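 note: natural log of median RNA to DNA barcode read ratio; higher means stronger binding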
The target of one experiment is T1, 4H465-AA.
T1 chain: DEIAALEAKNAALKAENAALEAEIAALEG

The target of the next experiment is T2, 4H486-AA.
T2 chain: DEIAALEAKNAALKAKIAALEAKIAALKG
As to conditions: mean of both orientations.

Another experiment concerns the target T3, 4H535-AA.
T3 chain: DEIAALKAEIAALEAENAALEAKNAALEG
The following applies: mean of both orientations.

For another experiment, the target named is T4, 4H58-AA.
T4 chain: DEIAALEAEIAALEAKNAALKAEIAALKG
As to conditions: mean of both orientations.

Another experiment has as its target T5, 4H895-AA.
T5 chain: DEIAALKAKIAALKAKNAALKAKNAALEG
As to conditions: mean of both orientations.

A further experiment concerns the target T6, 4H_APH.
T6 chain: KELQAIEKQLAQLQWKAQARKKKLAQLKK

A further experiment concerns the target T7, 4H_BCR.
T7 chain: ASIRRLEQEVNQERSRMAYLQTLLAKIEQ
The following applies: mean of both orientations.

The target in a further experiment is 4H_GCN4.
4H_GCN4, sequence (chain, as listed by the source): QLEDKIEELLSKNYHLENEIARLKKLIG
The next experiment has as its target GCN2_T.
For the next experiment, the target named is T8, P2-AA-1HGe-A.
T8 chain: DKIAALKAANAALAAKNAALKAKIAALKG
The following applies: mean of both orientations.

A further experiment concerns the target T9, P2-AA-1HGe-D.
T9 chain: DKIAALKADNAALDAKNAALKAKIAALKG
As to conditions: mean of both orientations.

The next experiment deals with T10, P2-AA-1HGe-H.
T10 chain: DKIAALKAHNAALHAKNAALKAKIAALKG
The following applies: mean of both orientations.

The next experiment concerns the target T11, P2-AA-1HGe-M.
T11 chain: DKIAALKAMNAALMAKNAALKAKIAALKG
As to conditions: mean of both orientations.

The target in another experiment is T12, P2-AA-1HGe-Q.
T12 chain: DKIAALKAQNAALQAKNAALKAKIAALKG
The following applies: mean of both orientations.

The target in another experiment is T13, P2-AA-1HGe-T.
T13 chain: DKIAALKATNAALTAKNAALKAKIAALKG
The following applies: mean of both orientations.

A further experiment deals with T14, P2-AA.
T14 chain: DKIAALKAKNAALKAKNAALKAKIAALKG
As to conditions: mean of both orientations.

Turning to DEIAALEAKNAALKAENAALEAEIAALEG [4H465-AA], the interaction score with 4H465-AA was -1.82; with 4H486-AA, -1.47; with 4H535-AA, -1.58; with 4H58-AA, 0.877; in the experiment with 4H895-AA, -1.13; with 4H_APH, -1.84. Further, the interaction score was -1.2 in the experiment with 4H_BCR; -2.34 with 4H_GCN4; -1.97 in the experiment with GCN2_T; 1.85 with P2-AA-1HGe-A; 1.36 in the experiment with P2-AA-1HGe-D; 1.53 with P2-AA-1HGe-H. Besides, the interaction score with P2-AA-1HGe-M came to 1.47; in the experiment with P2-AA-1HGe-Q, 1.82; in the experiment with P2-AA-1HGe-T, 2.11; with P2-AA it was 1.61.

The values above are taken from PMC10397247.
